B1: Azoarcus group I ribozyme (parent)
chain: GUGCCUUGCGCCGGGAAACCACGCAAGGGAUGGUGUCAAAUUCGGCGAAACCUAAGCGCCCGCCCGGGCGUAUGGCAACGCCGAGCCAAGCUUCGGCGCCUGCGCCGAUGAAGGUGUAGAGACUAGACGGCACCCACCUAAGGCAAACGCUAUGGUGAAGGCAUAGUCCAGGGAGUGGCGAAAGUCACACAAACCGG

Variants of: B1
Experiment: reverse-splicing fitness (ratio to wild type); higher = more active; in vitro selection; Mg2+ level not given
Summary of the method: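 An in vitro group I ribozyme library with randomized positions was T7-transcribed and gel-purified. In triplicate, 10 pmol RNA in EPPS pH 7.5 was reacted with 50 pmoles of a 30-nt RNA substrate for 1 h at 37 °C across several added MgCl2 levels (1–48 mM), then stopped with EDTA. Products were reverse transcribed from a substrate-complementary primer, PCR-amplified and sequenced (HiSeq 4000). Fitness is a variant's read proportion after selection over that before, normalised to wild type.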

Row | Variant | reverse-splicing fitness
1 | C82A A120U A145C C150G C169A U176C | 0.00155
2 | C82A A120U A145C C150G C169A U176G | 0.00213
3 | C82A A120U A145C C150G C169A U176A | 0.00254
4 | C82A A120G C150U C169U U176G | 0.0068
5 | C82A A120G C150U C169U U176A | 0.0231
6 | C82A A120G C150U C169U U176C | 0.0192
7 | C82A A120G C169A | 0.0152
8 | C82A A120G C169U | 0.0166
9 | C82A A120G C169G | 0.0233
10 | C82A A120U A145C C150A C169U U176C | 0.00188
11 | C82A A120U A145C C150A C169U U176A | 0.00259
12 | C82A A120U A145C C150A C169U U176G | 0.00218
13 | C82A A120U A145C C150G C169G | 0.0026
14 | C82A A120U A145C C150G C169U | 0.00298
15 | C82A A120U A145C C150G C169A | 0.00259
16 | C82A A120G C150A C169A U176A | 0.0184
17 | C82A A120G C150A C169A U176C | 0.0216
18 | C82A A120G C150A C169A U176G | 0.00586
19 | C82A A120G C150G C169U U176A | 0.0119
20 | C82A A120G C150G C169U U176G | 0.00654
21 | C82A A120G C150G C169U U176C | 0.0133

Row | Variant | reverse-splicing fitness
22 | C82A A120G C150G C169G U176G | 0.00432
23 | C82A A120G C150G C169G U176A | 0.00669
24 | C82A A120G C150G C169G U176C | 0.00462
25 | C82A A120U A145C C150A C169A U176G | 0.00198
26 | C82A A120U A145C C150A C169A U176C | 0.00238
27 | C82A A120U A145C C150A C169A U176A | 0.00185
28 | C82A A120G C150A U176C | 0.0171
29 | C82A A120G C150A U176A | 0.0118
30 | C82A A120G C150A U176G | 0.00837
31 | C82A A120G A145C | 0.0202
32 | C82A A120G A145U | 0.0219
33 | C82A A120G A145G | 0.0225
34 | C82A A120G A145G U176G | 0.00561
35 | C82A A120G A145G U176C | 0.021
36 | C82A A120G A145G U176A | 0.0143
37 | C82A A120G A145C C150G C169U U176G | 0.00438
38 | C82A A120G A145C C150G C169U U176C | 0.0123
39 | C82A A120G A145C C150G C169U U176A | 0.0158
40 | C82A A120G C150U U176A | 0.0125
41 | C82A A120G C150U U176C | 0.015
42 | C82A A120G C150U U176G | 0.00727

Row | Variant | reverse-splicing fitness
43 | C82A A120U A145C C150U U176C | 0.0147
44 | C82A A120U A145C C150U U176G | 0.00464
45 | C82A A120U A145C C150U U176A | 0.00945
46 | C82A A120G A145G C150G C169G | 0.00916
47 | C82A A120G A145G C150G C169U | 0.0106
48 | C82A A120G A145G C150G C169A | 0.01
49 | C82A A120G A145U C150A C169U U176C | 0.0164
50 | C82A A120G A145U C150A C169U U176A | 0.0207
51 | C82A A120G A145U C150A C169U U176G | 0.00431
52 | C82A A120G A145G C150U C169A U176G | 0.00535
53 | C82A A120G A145G C150U C169A U176C | 0.0196
54 | C82A A120G A145G C150U C169A U176A | 0.016
55 | C82A A120G A145G C169G | 0.0223
56 | C82A A120G A145G C169A | 0.0151
57 | C82A A120G A145G C169U | 0.0148
58 | C82A A120U A145C C150U C169G | 0.00276
59 | C82A A120U A145C C150U C169U | 0.00313
60 | C82A A120U A145C C150U C169A | 0.00197
61 | C82A A120G A145G C150G C169G U176G | 0.00587
62 | C82A A120G A145G C150G C169G U176A | 0.0097
63 | C82A A120G A145G C150G C169G U176C | 0.0124

Row | Variant | reverse-splicing fitness
64 | C82A A120U A145C C169U U176G | 0.00109
65 | C82A A120U A145C C169U U176C | 0.00274
66 | C82A A120U A145C C169U U176A | 0.00271
67 | C82A A120G C169U U176A | 0.0233
68 | C82A A120G C169U U176G | 0.00475
69 | C82A A120G C169U U176C | 0.0175
70 | C82A A120G A145G C169G U176C | 0.032
71 | C82A A120G A145G C169G U176A | 0.0223
72 | C82A A120G A145G C169G U176G | 0.00359
73 | C82A A120G C150G C169G | 0.00786
74 | C82A A120G C150G C169A | 0.00866
75 | C82A A120G C150G C169U | 0.0095
76 | C82A A120U A145C C150U C169A U176G | 0.002
77 | C82A A120U A145C C150U C169A U176A | 0.00195
78 | C82A A120U A145C C150U C169A U176C | 0.00251
79 | C82A A120G A145G C150G U176C | 0.011
80 | C82A A120G A145G C150G U176G | 0.00572
81 | C82A A120G A145G C150G U176A | 0.00745
82 | C82A A120G A145U C150U C169G | 0.0173
83 | C82A A120G A145U C150U C169U | 0.0133

Reference: the RNAGym collection of RNA variant scans (doi:10.1093/molbev/msab373)
